Test system: PD-L1 expression on cancer cell lines MC38-luc and LL2-luc
Test: Flow-cytometric analysis of PD-L1 expression with or without interferon gamma
Format: cell-based
Details: cell culture, 20 ng/ml or 50 ng/ml IFNgamma
Description: FIG. 12: Flow cytometry analysis showing PD-L1 expression in cancer cell lines before and after stimulation with 20 ng/ml or 50 ng/ml IFNgamma (IFNγ).

B1: interferon gamma: immunoactivator cytokine (protein, UniProt P01579 24-161, looked up)
Interferon gamma: QDPYVKEAENLKKYFNAGHSDVADNGTLFLGILKNWKEESDRKIMQSQIVSFYFKLFKNFKDDQSIQKSVETIKEDMNVKFFNSNKKKRDDFEKLTNYSVTDLNVQRKAIHELIQVMAELSPAAKTGKRKRSQMLFRG
Question: Which results are given for B1?
Answer: PD-L1 expression: conditionally enhanced the expression of PD-L1; PD-L1 expression (listed as IFN-gamma): PD-L1 expression increases

From US20240101685A1, “NEAR INFRARED PHOTOIMMUNOTHERAPY (NIR-PIT) COMBINATION THERAPY TO TREAT CANCER” (THE UNITED STATES OF AMERICA, as represented by the …, priority 2021, published 2024)
